According to the supplement of paper PMC9876800:

Test system: peptide library, one residue held at a place counted from the S/T acceptor
Experiment: relative phosphorylation of the sub-library (ratio to the mean residue at this position); higher = residue favoured
Procedure, shortened: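 Relative sub-library phosphorylation is a ratio to the mean residue at the same position. Purified recombinant kinases were incubated under kinase-specific conditions with biotinylated degenerate peptide sub-libraries, each fixing one residue at one position around a central Ser/Thr, using 50 μM peptide and 50 μM ATP spiked with γ-32P-ATP for 90 min. Spots captured on streptavidin membranes were phosphorimaged and quantified by densitometry.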

ATR, construct: Full length, human, sequence (Q13535 whole entry, looked up): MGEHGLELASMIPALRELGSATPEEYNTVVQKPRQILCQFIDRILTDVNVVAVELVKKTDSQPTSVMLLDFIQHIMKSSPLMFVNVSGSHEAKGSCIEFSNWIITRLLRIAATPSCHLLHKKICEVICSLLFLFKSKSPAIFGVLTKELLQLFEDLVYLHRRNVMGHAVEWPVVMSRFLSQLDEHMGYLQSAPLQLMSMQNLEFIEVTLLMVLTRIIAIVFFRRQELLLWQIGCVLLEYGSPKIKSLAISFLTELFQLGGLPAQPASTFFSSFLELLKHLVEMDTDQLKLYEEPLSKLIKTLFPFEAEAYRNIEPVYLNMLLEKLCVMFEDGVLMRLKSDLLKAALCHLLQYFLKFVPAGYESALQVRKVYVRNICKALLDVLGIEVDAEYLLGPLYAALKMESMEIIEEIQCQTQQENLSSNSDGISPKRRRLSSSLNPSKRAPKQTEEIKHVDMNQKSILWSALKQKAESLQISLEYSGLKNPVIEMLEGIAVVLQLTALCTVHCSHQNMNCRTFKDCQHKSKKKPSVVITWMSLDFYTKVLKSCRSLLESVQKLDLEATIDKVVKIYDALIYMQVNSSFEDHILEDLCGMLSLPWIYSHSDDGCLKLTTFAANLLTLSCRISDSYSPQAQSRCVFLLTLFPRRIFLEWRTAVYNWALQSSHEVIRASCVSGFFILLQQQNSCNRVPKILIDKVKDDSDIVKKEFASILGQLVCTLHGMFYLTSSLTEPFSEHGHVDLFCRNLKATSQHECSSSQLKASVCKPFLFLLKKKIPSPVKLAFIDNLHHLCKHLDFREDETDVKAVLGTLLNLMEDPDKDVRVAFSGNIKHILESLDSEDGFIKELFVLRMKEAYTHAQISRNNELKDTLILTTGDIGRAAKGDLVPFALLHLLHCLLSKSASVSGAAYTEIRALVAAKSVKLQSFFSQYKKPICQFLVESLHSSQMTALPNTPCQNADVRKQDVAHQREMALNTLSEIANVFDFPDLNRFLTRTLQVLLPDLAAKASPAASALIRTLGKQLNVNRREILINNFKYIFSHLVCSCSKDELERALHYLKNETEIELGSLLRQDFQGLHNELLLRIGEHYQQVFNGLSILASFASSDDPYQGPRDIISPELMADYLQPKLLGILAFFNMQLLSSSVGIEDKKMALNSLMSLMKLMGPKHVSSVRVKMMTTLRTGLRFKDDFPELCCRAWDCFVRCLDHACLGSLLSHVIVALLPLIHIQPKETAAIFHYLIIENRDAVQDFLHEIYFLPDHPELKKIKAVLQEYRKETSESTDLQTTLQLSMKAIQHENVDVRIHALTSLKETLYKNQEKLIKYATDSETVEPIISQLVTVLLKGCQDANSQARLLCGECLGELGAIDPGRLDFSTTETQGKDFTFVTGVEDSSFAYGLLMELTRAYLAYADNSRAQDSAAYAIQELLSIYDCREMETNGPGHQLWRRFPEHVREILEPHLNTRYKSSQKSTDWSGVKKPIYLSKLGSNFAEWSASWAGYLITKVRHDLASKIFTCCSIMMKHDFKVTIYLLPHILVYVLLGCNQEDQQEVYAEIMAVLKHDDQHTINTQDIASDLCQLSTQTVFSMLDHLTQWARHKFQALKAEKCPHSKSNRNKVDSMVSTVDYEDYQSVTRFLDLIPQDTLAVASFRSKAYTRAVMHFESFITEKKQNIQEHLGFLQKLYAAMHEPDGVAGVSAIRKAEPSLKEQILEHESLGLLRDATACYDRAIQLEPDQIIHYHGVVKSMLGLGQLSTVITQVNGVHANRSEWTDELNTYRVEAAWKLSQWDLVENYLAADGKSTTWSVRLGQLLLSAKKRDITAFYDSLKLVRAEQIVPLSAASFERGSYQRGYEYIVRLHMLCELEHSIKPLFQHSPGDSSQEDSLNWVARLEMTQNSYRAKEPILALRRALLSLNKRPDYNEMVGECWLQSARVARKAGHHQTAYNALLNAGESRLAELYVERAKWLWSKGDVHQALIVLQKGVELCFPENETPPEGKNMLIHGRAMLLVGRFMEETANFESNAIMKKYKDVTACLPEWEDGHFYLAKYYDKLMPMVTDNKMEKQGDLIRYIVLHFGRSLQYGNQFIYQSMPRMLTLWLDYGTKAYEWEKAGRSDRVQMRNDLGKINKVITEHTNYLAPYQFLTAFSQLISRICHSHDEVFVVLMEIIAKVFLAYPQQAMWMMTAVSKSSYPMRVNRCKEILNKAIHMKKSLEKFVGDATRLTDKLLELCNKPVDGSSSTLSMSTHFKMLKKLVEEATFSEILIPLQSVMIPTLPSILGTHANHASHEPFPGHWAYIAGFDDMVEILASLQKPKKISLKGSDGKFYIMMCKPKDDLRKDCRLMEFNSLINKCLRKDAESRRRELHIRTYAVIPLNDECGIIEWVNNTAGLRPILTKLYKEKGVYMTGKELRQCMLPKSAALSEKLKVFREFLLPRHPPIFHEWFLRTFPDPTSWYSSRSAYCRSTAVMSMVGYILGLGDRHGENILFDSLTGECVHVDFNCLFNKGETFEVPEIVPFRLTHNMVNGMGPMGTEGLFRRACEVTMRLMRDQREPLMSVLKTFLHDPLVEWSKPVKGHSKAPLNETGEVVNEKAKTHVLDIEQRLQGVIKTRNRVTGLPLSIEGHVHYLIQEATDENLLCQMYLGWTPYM

ATR, construct: Full length, human (from UniProt Q13535)
relative phosphorylation
Details	at +1	at +2	at +3	at +4	at -1	at -2	at -3	at -4	at -5
A fixed	0.714	1.01	1.05	1.05	1.46	1.01	1.01	0.94	0.971
D fixed	0.582	1.07	1.13	0.968	0.86	0.785	0.814	0.984	1.17
E fixed	0.586	1.07	1.21	0.929	0.742	0.871	0.88	1.18	1.07
F fixed	0.709	0.913	0.944	0.988	0.872	0.957	1.08	1.18	1.3
G fixed	0.651	0.921	0.965	1.13	1.26	0.839	0.875	1.05	1.01
H fixed	0.624	1.06	0.991	1.02	0.845	0.973	0.889	0.982	1.01
I fixed	0.747	0.898	0.866	0.875	0.687	0.793	1.1	0.912	0.818
K fixed	0.649	0.923	0.877	0.928	0.806	1.09	0.911	0.919	0.884
L fixed	0.73	0.871	0.887	0.993	1.26	0.84	1.18	0.901	0.901
M fixed	0.685	0.908	0.92	0.995	0.978	0.94	1.12	0.96	0.931
N fixed	0.933	1.05	1	1.02	1.17	0.945	0.816	0.892	0.877
P fixed	0.689	1.14	1.18	1.19	1.45	1.59	0.972	0.956	0.909
Q fixed	5.91	1.23	1.09	0.994	1.2	1.03	0.859	0.926	0.871
R fixed	0.83	1.09	0.972	0.97	0.855	1.67	1.62	0.982	1
V fixed	0.665	0.967	0.988	0.849	0.725	0.768	0.884	0.867	0.802
W fixed	0.618	0.926	0.934	1.11	0.842	0.916	1.08	1.26	1.23
Y fixed	0.671	0.971	1	0.984	0.987	0.99	0.911	1.11	1.23
pThr fixed	0.679	0.968	1.36	1.1	0.799	0.849	0.99	1.38	1.3
pTyr fixed	0.62	1.01	1.03	1.44	0.904	1.14	1.83	2.14	1.62
